Experimental data: patent US20240252631A1, “METHODS OF USING ACTIVIN RECEPTOR TYPE II SIGNALING INHIBITORS” (Keros Therapeutics, Inc., priority 2021, published 2024)
Entries after “also recorded” stand apart in the source; their conditions may differ.

Legend:
C57BI/6 mice [1] = assay: ActRIIA/B-mFc in combination with ruxolitinib (ruxolitinib-induced anemia); assay type: in vivo, mouse
Protocol: To examine whether treatment with ActRIIA/B-mFc can overcome ruxolitinib-induced anemia, a pharmacological assessment was conducted in mice. Ten- to twelve-week-old, female, C57BI/6 mice were dosed orally with either vehicle (n=10) or ruxolitinib at 90 mg/kg (n=20) or 120 mg/kg (n=20) twice daily. After 37 days of ruxolitinib therapy, blood was sampled via cheek bleed for hematological assessment. On Day 41, mice from each ruxolitinib dose were divided into two groups that received either TBS (vehicle) (n=10) or ActRIIA/B-mFc (7.5 mg/kg, n=10 per group), IP twice weekly for 14 days concomitant to continued ruxolitinib dosing. Hematological parameters were assessed in whole blood with the use of a Heska Element HT5 veterinary hematology analyzer.

ActRIIB = ActRIIB (Homo sapiens, UniProt Q13705); conditions: Townson et al., J. Biol. Chem. 287:27313, 2012; cited from earlier work
[2] = test system: Bone marrow cells from 11-week-old C57BI/6 mice; assay: Ex-vivo treatment of bone marrow cells, ploidy of megakaryocyte precursors by flow cytometry; assay type: cell-based, mouse; conditions: six days
Protocol: Bone marrow cells from 11-week-old C57BI/6 mice were isolated and treated with Activin A ([…]), ActRIIA/B-mFc ([…]), or a combination of both for six days. Cells were harvested after six days and analyzed using flow cytometry (N=2).

[3] = Activity in vivo of ActRIIA variant substituted at X17; conditions: substitution of alanine (A) for lysine (K) at X17
[4] = test system: mouse model of immune thrombocytopenia; assay: Platelet recovery following anti-GP1bα platelet depletion; assay type: in vivo
Protocol: Twelve-week-old mice were treated with either anti-GP1bα (0.08 mg/kg, Efferet) or IgG control. At day 4 after treatment, the anti-GP1bα treated group was further divided to receive either vehicle or ActRIIA/B-mFc (7.5 mg/kg) treatment. Platelets were measured at indicated time points post anti-GP1bα dosing. At day 10 post-treatment, mice were euthanized and bone marrow cells were harvested. Bone marrow cells were fixed in ice-cold 100% ethanol and stained with Propidium lodide (PI) (200 μg/mL, Sigma-Aldrich) and anti-CD41 (FITC conjugated, Emfret Analytics) antibody in parallel with RNase treatment (2 mg/ml, Invitrogen). Samples were analyzed by flow cytometer (Cytoflex, Beckman coulter) and % CD41+ nucleated cells (PI+ cells) was measured.

[5] = test system: TPO^high model of myelofibrosis; assay: TPO^high model of myelofibrosis: platelets, red blood cell parameters, spleen weight, immune cells; assay type: in vivo, mouse
Protocol: The TPO^high model of myelofibrosis induces a myelofibrotic-like pathology through elevated exposure to thrombopoietin, the native endocrine inducer of megakaryocyte progenitor proliferation and development. Seven-week-old C57BI/6 albino mice (B6(Cg)-Tyr, Jackson Laboratory) were teil-vein injected with 0.75 mg/kg thrombopoietin (TPO) expressing plasmid cloned into pLEV113 plasmid (Lake Pharma). The injection was done in hydrodynamic approach in which 100 ml/kg volume is injected in a short period of time (6-10 seconds). On day 3 after TPO injection mice were divided into 2 groups receiving either vehicle (TBS) or ActRIIA/B-mFc (7.5 mg/kg), twice weekly. Mice were sacrificed on day 14 after TPO injection. Hematological parameters were measured using the Heska Element HT5 veterinary hematology analyzer.

C57BI/6 mice [6] = assay: Effect of ActRIIA/B-mFc on platelets and bone marrow megakaryocyte progenitors 12 hours post-dose; assay type: in vivo, mouse; conditions: single dose 10 mg/kg IP
Protocol: Eleven-week-old C57BI/6 mice were dosed with either TBS (Vehicle) or ActRIIA/B-mFc (10 mg/kg) via intraperitoneal (IP) administration. Twelve hours post-dose whole blood was sampled, and platelet counts were determined using a veterinary hematology analyzer (Heska Element HT5). Mice were then euthanized, and bone marrow extracted from the femurs. Bone marrow cells were stained with antibodies against Lineage (Perc-Cy5), sca1 (BV525), cKit (Alexa750), CD41 (APC) and CD150 (Pcy7) and analyzed on flow cytometer (Cytoflex, Beckman coulter). Megakaryocyte progenitors were gated on Lin−; sca1−; ckit+; CD150+; CD41+ cells.

C57BI/6 mice [7] = assay: Effect of ActRIIA/B-mFc on megakaryocyte maturation (CD41+ cells and ploidy by flow cytometry); assay type: in vivo, mouse; conditions: 10 mg/kg, bone marrow
Protocol: Eleven-week-old C57BI/6 mice were dosed with either TBS (Vehicle) or ActRIIA/B-mFc (10 mg/kg) via IP administration. Twelve and twenty-four hour later mice were euthanized and bone marrow extracted from the femurs. Bone marrow cells were fixed in ethanol following by a staining with Propidium lodide (PI) and anti CD41 (FITC, Efferet) antibody in parallel with RNAse treatment. Samples were analyzed by flow cytometer (Cytoflex, Beckman coulter). Ploidy of CD41+ nucleated cells (PI+ cells) was analyzed. Graphs represent % cells at each ploidy stage. For 12HR N=3 and for 24HR N=2. For CD41+ cells at 12HR time point a t-test was performed for statistical analysis. Data are presented as mean±SEM.

C57BI/6 mice [8] = assay: Effect of a single dose of ActRIIA/B-mFc on platelet numbers at day 37, 51 and 85; assay type: in vivo, mouse; conditions: single dose 10 mg/kg subcutaneous
Protocol: Eleven-week-old C57BI/6 mice were given a single dose of either TBS (vehicle) or ActRIIA/B-mFc (10 mg/kg) via subcutaneous administration. Separate cohorts of mice from both dosing groups were sampled for whole blood at study day 37, 51 and 85, and platelet counts were determined using a veterinary hematology analyzer (Heska Element HT5).

C57BI/6 male mice = assay: Effect of an anti-activin A antibody on platelet numbers 24 hours post-dose; assay type: in vivo, mouse; conditions: intraperitoneal, anti-activin A 5 mg/kg, ActRIIA/B-mFc 10 mg/kg, vs TBS
Protocol: Ten-week-old C57BI/6 male mice were dosed with either TBS (vehicle), anti-activin A antibody (described in WO2008031061A2, 5 mg/kg), or ActRIIA/B-mFc (10 mg/kg) via intraperitoneal administration. Twenty-four hours post-dose whole blood was sampled, and platelet counts were determined using a veterinary hematology analyzer (Hematrue).

[9] = ruxolitinib alone, 90 or 120 mg/kg orally twice daily, after 37 days
[10] = 7.5 mg/kg twice weekly from day 3, day 14 after TPO injection
[11] = 7.5 mg/kg IP twice weekly for 14 days, continued ruxolitinib

Chain of ActRIIB (Q13705 19-512, species assumed): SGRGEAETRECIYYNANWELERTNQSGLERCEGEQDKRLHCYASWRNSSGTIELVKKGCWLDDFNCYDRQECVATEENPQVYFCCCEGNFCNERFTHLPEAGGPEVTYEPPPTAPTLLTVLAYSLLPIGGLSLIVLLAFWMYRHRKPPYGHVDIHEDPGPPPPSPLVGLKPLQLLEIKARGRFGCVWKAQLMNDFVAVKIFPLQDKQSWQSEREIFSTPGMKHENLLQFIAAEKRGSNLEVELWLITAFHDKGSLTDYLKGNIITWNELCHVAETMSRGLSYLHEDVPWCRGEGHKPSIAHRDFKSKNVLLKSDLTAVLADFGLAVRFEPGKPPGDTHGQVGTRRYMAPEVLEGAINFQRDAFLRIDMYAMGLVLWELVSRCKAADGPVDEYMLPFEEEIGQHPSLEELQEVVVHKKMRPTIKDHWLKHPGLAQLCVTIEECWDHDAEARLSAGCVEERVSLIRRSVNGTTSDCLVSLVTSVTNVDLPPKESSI

Molecule: N#CC[C@H](C1CCCC1)n1cc(-c2ncnc3[nH]ccc23)cn1 [ruxolitinib, reference compound]
- RBC volume (C57BI/6 mice [1]; [9]): reduced
- hematocrit (C57BI/6 mice [1]; [9]): reduced
- hemoglobin (C57BI/6 mice [1]; [9]): reduced

Molecule: BMP9: bone morphogenetic protein, ligand in the TGF-β superfamily
- binding affinity for ActRIIB relative to ActRIIA (ActRIIB): about 300 fold

B1: activin A: ActRII ligand of the TGF-β superfamily used to treat bone marrow cells ex vivo (protein, UniProt P08476 311-426, looked up)
Inhibin beta A chain: GLECDGKVNICCKKQFFVSFKDIGWNDWIIAPSGYHANYCEGECPSHIAGTSGSSLSFHSTVINHYRMRGHSPFANLKSCCVPTKLRPMSMLYYDDGQNIIKKDIQNMIVEECGCS
- 2N ploidy levels ([2]; Activin A (5 mg/kg)): increased
- extent of polyploidy (higher ploidy levels) ([2]; Activin A (5 mg/kg)): reduced

B2: SEQ ID NO: 85: ActRIIA variant with substitution of alanine (A) for lysine (K) at X17 (protein)
chain: GAILGRSETQECLFYNANWELERTNQTGVERCEGEKDKRLHCYATWRNISGSIEIVAKGCWLDDFNCYDRTDCVETEENPQVYFCCCEGNMCNEKFSYFPEMEVTQPTS
- activity in vivo [3]: reduced activity

B3: ActRIIA/B-mFc: SEQ ID NO: 69 fused to a mouse Fc domain by way of a linker (protein)
chain: GAILGRSETQECLFYNANWELERTNQTGVERCEGEKDKRLHCYATWRNISGSIEIVKKGCWLDDFNCYDRTDCVETEENPQVYFCCCEGNMCNEKFSYFPEMEVTQPTS
modifications: left off: a dimerising Fc or GST
- recovery of platelet numbers following platelet depletion ([4]; 7.5 mg/kg at day 4 after anti-GP1bα (0.08 mg/kg), compared to vehicle treated mice): accelerated recovery
- increase in the number of CD41+ megakaryocyte progenitors in the bone marrow compared to the vehicle-treated group ([4]; 7.5 mg/kg, day 10 after platelet depletion): 25%
- 4N ploidy level ([4]; 7.5 mg/kg, day 10 after platelet depletion, vs vehicle): higher
- RBC metrics (red blood cells, hemoglobin, hematocrit, mean corpuscular hemoglobin concentration) [5, 10]: significant improvement
- TPO-mediated increase in lymphocytes [5, 10]: reduced
- TPO-mediated increase in white blood cells [5, 10]: reduced
- development of anemia [5, 10]: reduce
- expansion of platelets [5, 10]: significant attenuation; also recorded: attenuated
- splenomegaly [5, 10]: significant reduction
- splenic extra medullary hematopoiesis ([5]; inferred from splenomegaly, 7.5 mg/kg twice weekly, day 14): reduced
- bone marrow megakaryocyte progenitors (C57BI/6 mice [6]; Lin-, sca1-, ckit+, CD150+, CD41+ cells): increased
- circulating platelet numbers (C57BI/6 mice [6]; vs TBS vehicle): increased
- number of CD41+ megakaryocyte progenitors (C57BI/6 mice [7]; 12 hours after treatment): increase
- number of polyploid megakaryocytes (C57BI/6 mice [7]; by 24 hours): increase
- activin-mediated changes in megakaryocyte precursors (ploidy) ([2]; ActRIIA/B-mFc (10 mg/kg) with Activin A (5 mg/kg)): reversed
- duration of increased circulating platelets after a single dose (C57BI/6 mice [8]): at least 85 days
- circulating platelets (C57BI/6 mice [8]; day 37, 51 and 85): increased
- platelets in wild-type mice (C57BI/6 male mice): increased
- ruxolitinib-associated reduction in RBC volume (C57BI/6 mice [1]; [11]): abrogated
- ruxolitinib-associated reduction in hematocrit (C57BI/6 mice [1]; [11]): abrogated
- ruxolitinib-associated reduction in hemoglobin (C57BI/6 mice [1]; [11]): abrogated
- body weight in mice treated with ruxolitinib (C57BI/6 mice [1]; ActRIIA/B-mFc 7.5 mg/kg IP twice weekly for 14 days with ruxolitinib 90 or 120 mg/kg twice daily): increased
